From patent publication US20260098096A1 (MONASH UNIVERSITY, published 2026)
Each block holds one binder with its values, some of them ahead of it.

Legend:
Human CCR8 = target: T1, Human CCR8 (human, UniProt P51685 1-355); assay: flow cytometry on hCCR8-L1.2 transfected cells
T1 construct: Expressed on transfected CHO-Flpn or L1.2 cells; also called hCCR8; C-C chemokine receptor type 8

human CCR3 = target: T2, human CCR3 (human, UniProt P51677 1-355); assay: flow cytometry on transfected L1.2 cells
T2 construct: whole, on cells
T2 sequence (looked up): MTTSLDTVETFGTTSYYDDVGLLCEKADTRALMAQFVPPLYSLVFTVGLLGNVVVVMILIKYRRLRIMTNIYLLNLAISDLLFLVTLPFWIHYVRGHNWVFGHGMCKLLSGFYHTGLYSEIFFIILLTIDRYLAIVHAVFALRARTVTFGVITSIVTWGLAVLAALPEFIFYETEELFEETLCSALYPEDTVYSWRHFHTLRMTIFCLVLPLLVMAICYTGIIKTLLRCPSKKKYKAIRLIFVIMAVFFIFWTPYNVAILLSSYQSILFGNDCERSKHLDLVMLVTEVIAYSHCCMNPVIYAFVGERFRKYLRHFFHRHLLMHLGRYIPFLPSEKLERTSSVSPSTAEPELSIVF

human CCR6 = target: T3, human CCR6 (human, UniProt P51684 1-374); assay: flow cytometry on transfected L1.2 cells
T3 construct: whole, on cells
T3 sequence (looked up): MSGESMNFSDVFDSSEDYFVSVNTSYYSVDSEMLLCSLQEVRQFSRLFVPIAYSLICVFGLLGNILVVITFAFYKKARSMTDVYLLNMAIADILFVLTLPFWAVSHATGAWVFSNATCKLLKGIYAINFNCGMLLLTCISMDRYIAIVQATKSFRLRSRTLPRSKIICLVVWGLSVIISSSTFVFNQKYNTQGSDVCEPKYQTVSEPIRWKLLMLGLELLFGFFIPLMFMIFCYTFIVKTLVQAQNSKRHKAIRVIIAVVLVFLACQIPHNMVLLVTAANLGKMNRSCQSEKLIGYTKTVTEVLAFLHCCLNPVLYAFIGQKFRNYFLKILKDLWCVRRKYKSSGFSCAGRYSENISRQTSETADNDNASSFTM

human CCR7 = target: T4, human CCR7 (human, UniProt P32248 25-378); assay: flow cytometry on transfected L1.2 cells
T4 construct: whole, on cells
T4 sequence (looked up): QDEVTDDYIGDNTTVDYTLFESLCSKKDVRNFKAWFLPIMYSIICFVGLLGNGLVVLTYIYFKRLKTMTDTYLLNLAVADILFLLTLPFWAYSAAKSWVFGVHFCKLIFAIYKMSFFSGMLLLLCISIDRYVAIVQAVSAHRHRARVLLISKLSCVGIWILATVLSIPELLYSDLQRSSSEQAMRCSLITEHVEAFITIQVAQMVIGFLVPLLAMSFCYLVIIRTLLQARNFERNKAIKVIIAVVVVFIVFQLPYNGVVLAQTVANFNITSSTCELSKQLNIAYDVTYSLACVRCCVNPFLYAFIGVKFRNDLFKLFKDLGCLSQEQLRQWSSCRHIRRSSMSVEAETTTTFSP

human CCR10 = target: T5, human CCR10 (human, UniProt P46092 1-362); assay: flow cytometry on transfected L1.2 cells
T5 construct: whole, on cells
T5 sequence (looked up): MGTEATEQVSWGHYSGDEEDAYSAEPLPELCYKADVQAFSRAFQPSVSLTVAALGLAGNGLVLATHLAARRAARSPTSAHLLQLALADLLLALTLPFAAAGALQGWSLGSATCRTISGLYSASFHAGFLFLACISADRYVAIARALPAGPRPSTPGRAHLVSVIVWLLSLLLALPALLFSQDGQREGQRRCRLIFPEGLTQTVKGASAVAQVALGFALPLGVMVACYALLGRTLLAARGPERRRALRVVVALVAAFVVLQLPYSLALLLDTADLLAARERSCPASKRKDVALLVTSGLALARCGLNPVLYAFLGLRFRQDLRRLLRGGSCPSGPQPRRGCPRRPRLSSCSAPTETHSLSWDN

hCCR8_172-173 YQ-AA = target: T6, hCCR8_172-173 YQ-AA (human, UniProt P51685 1-355); assay: epitope mapping on transfected cells
T6 construct: also called Mut 172-173
T6 sequence (P51685 whole entry Y172A/Q173A): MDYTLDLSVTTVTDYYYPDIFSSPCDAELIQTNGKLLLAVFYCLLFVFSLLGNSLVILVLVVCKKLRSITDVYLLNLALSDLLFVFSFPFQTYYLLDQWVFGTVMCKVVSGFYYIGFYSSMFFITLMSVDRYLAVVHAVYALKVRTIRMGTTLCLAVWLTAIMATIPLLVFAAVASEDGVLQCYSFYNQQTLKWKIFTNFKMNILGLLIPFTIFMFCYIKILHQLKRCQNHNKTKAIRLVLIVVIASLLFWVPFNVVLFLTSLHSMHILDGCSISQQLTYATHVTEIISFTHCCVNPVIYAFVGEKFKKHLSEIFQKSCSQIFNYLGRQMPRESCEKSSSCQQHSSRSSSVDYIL

hCCR8_174-175 VA-AG = target: T7, hCCR8_174-175 VA-AG (human, UniProt P51685 1-355); assay: epitope mapping on transfected cells
T7 construct: also called Mut 174-175
T7 sequence (P51685 whole entry V174A/A175G): as the sequence (P51685 whole entry Y172A/Q173A) above, with A172Y, A173Q, V174A, A175G counted along it

Mouse CCR8 = target: T8, Mouse CCR8 (mouse, UniProt P56484 1-353); assay: flow cytometry on transfected CHO-Flpn cells
T8 construct: Expressed on transfected CHO-Flpn or L1.2 cells; also called mCCR8
T8 sequence: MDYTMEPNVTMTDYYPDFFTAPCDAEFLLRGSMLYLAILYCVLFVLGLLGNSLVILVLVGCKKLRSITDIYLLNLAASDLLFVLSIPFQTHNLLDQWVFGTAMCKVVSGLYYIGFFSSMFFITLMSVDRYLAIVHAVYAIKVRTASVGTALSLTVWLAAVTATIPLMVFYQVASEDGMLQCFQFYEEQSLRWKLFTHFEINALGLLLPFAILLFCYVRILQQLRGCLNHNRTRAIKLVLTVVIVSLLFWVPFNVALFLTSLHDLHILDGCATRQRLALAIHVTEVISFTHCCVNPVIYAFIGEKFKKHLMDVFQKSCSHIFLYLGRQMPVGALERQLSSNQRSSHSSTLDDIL

Cynomolgus CCR8 = target: T9, Cynomolgus CCR8 (cynomolgus monkey, UniProt O97665 1-356 (rhesus entry)); assay: flow cytometry on HEK293T cells transfected with cyno CCR8
T9 construct: also called cyno CCR8; cynomolgus monkey CCR8
T9 sequence (O97665 other isoform, or with tags, fused parts or gaps): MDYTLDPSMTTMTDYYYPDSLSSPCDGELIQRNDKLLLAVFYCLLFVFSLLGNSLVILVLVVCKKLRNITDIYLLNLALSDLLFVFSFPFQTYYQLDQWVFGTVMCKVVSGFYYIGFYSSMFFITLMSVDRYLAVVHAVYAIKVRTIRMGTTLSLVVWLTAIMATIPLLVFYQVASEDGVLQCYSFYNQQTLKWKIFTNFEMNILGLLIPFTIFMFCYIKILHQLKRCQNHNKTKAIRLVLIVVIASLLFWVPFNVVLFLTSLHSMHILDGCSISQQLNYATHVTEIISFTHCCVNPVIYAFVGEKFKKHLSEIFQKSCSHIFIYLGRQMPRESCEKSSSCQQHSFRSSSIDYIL
From the text: FIG. 2. Reactivity of 2H8 antibody and other anti-hCCR8 antibodies towards Cyno CCR8. HEK293T cells were transfected with plasmid coding for cynomolgus monkey CCR8 and stained with various anti-hCCR8 antibodies (blue) or isotype control (red).

T1 sequence (P51685 whole entry): as the sequence (P51685 whole entry Y172A/Q173A) above, with A172Y, A173Q counted along it

- EC50 (Human CCR8): 2.1 nM
B1: Humanised 2H8 (antibody, V domains shown)
VH: QVQLVQSGAEVKKPGASVKVSCKASGYTFTDYNMHWVRQAPGQGLEWIGYVNPNNGGTSYNQKFKGKATLTVDKSISTAYMELSRLRSDDTAVYYCARWVLRRNFAYWGQGTLVTVSS
VL: DIQMTQSPSSLSASVGDRVTITCKASQDVNTAVAWYQQKPGKAPKLLIYWASTRHTGVPSRFSGSGSGTDFTLTISSLQPEDFATYYCQQHYRNPYTFGQGTKLEIK
notes: also called Humanized 2H8-B4; h2H8

- EC50 (Human CCR8): 2.1 nM
B2: Chimeric 2H8 (antibody, human IgG1, kappa, V domains shown)
VH: EVQLQQSGPELVKPGASVKMSCKASGYTFTDYNMHWVKQSHGKSLEWIGYVNPNNGGTSYNQKFKGKATLTVNKSSSTAYMELRSLTSEDSAVYYCARWVLRRNFAYWGQGTLVTVSA
VL: DIVMTQSHKFMSTSVGDRVSITCKASQDVNTAVAWYQQKPGQSPKLLIYWASTRHTGVPDRFTGSGSGTDYTLTISSVQAEDLALYYCQQHYRNPYTFGGGTKLEIKR
notes: also called Chimeric 2H8-B4; chimeric 2H8 B4 (parental)

- binding result (human CCR3): no binding
- binding result (human CCR6): no binding
- binding result (human CCR7): no binding
- binding result (human CCR10): no binding
- binding result (hCCR8_172-173 YQ-AA): binds
- binding result (hCCR8_174-175 VA-AG): binds
- binding result (Mouse CCR8): binds
- binding result (Cynomolgus CCR8): binds
B3: 2H8 anti-m/hCCR8 antibody (mouse hybridoma clone, isotype IgG2b) (antibody, V domains shown)
VH: B2 VH
VL: DIVMTQSHKFMSTSVGDRVSITCKASQDVNTAVAWYQQKPGQSPKLLIYWASTRHTGVPDRFTGSGSGTDYTLTISSVQAEDLALYYCQQHYRNPYTFGGGTKLEIK
notes: Murine antibody from a mouse immunised with mouse CCR8 L1.2 cells; the mouse constant regions are not; also called 2H8-B4
